# Where “and” joins values, the source holds several entries; their conditions need not be identical. Identical values can stand only once.
# Experiments:
# [1] = target: His6-YhaM^WT, recombinant wild-type S. aureus 3'-5' exoribonuclease YhaM (Staphylococcus aureus USA300 JE2); experiment: SEC; 60 uM YhaM on HiPrep 16/60 Sephacryl S-100 HR, buffer B (40 mM HEPES pH 7.5, 0.5 M KCl, 10% glycerol); size by gel filtration standard
# [2] = target: His6-YhaM^WT, recombinant wild-type S. aureus 3'-5' exoribonuclease YhaM (Staphylococcus aureus USA300 JE2); experiment: mass photometry; TwoMP mass photometer, 30 nM protein, 50 mM Na-Tricine pH 8.0, 100 mM KCl without metal or with 1 mM MnSO4, MgSO4 or CoSO4
# [3] = target: YhaM^WT expressed in the S. aureus ΔyhaM mutant from a plasmid under its native promoter (Staphylococcus aureus USA300 JE2); experiment: cross-linking; in vivo, S. aureus ΔyhaM cells carrying pYhaM^WT (OD600 0.8), 1 mM glutaraldehyde for 1-2 h at room temperature, Western blot with anti-YhaM
Substance,stoichiometry N [1],percent of particles in a hexameric state with Mn(II) [2],stoichiometry N [2],stoichiometry N [3]
"His6-YhaM^WT, recombinant wild-type S. aureus 3'-5' exoribonuclease YhaM (enzyme)",6,80%,2 and 6,
YhaM^WT expressed in the S. aureus ΔyhaM mutant from a plasmid under its native promoter (enzyme),,,,6 and 2 and 4
